The chains are these.
B1: Met-FGF21 (mature human FGF21 with an added N-terminal methionine) (ligand)
chain: MHPIPDSSPLLQFGGQVRQRYLYTDDAQQTEAHLEIREDGTVGGAADQSPESLLQLKALKPGVIQILGVKTSRFLCQRPDGALYGSLHFDPEACSFRELLLEDGYNVYQSEAHGLPLHLPGNKSPHRDPAPRGPARFLPLPGLPPALPEPPGILAPQPPDVGSSDPLSMVGPSQGRSPSYAS
B2: Derivative 102: Analog 11 with modifying moiety III on the sulphur of Cys 71 (ligand)
chain: B1 chain with M1A, S72C, N122Q, L167F, M169L, Q174A, G175V, Y180F
modifications: Cys 71: {2-[2-(2-{2-[2-(2-{2-[(S)-4-Carboxy-4-(17-carboxyheptadecanoylamino)butyrylamino]ethoxy}ethoxy)acetylamino]ethoxy}ethoxy)acetylamino]ethylcarbamoyl}methyl (modifying moiety III) on the sulphur atom
B3: [-1A, S71C, N121Q, L166F, S167G, M168L, G174V, Y179F, A180E] FGF-21 (ligand)
chain: B1 chain with M1A, S72C, N122Q, L167F, S168G, M169L, G175V, Y180F, A181E
B4: Derivative 18: Analog 2 with modifying moiety III on the sulphur of Cys 71 (ligand)
chain: B1 chain with M1A, S72C, L167F, S168G, M169L, G175V, Y180F, A181E
modifications: Cys 71: {2-[2-(2-{2-[2-(2-{2-[(S)-4-Carboxy-4-(17-carboxyheptadecanoylamino)butyrylamino]ethoxy}ethoxy)acetylamino]ethoxy}ethoxy)acetylamino]ethylcarbamoyl}methyl (modifying moiety III) on the sulphur atom
B5: [-1A, S71C, L166F, S167G, M168L, G174V, Y179F, A180E] FGF-21 (ligand)
chain: B1 chain with M1A, S72C, L167F, S168G, M169L, G175V, Y180F, A181E
B6: [-1A, S71C, N121Q, L166F, M168L, Q173A, G174V, Y179F] FGF21 (ligand)
chain: B1 chain with M1A, S72C, N122Q, L167F, M169L, Q174A, G175V, Y180F
B7: [-1A, S71C, L166F, S167G, M168L, P171L, S172E, Q173A, G174V, Y179F, A180E] FGF-21 (ligand)
chain: AHPIPDSSPLLQFGGQVRQRYLYTDDAQQTEAHLEIREDGTVGGAADQSPESLLQLKALKPGVIQILGVKTCRFLCQRPDGALYGSLHFDPEACSFRELLLEDGYNVYQSEAHGLPLHLPGNKSPHRDPAPRGPARFLPLPGLPPALPEPPGILAPQPPDVGSSDPFGLVGLEAVRSPSFES
B8: [-1A, S71C, N121Q, L166F, S167G, M168L, P171L, S172E, Q173A, G174V, Y179F, A180E] FGF-21 (ligand)
chain: B7 chain with N122Q
B9: Derivative 24: Analog 8 with modifying moiety III on the sulphur of Cys 71 (ligand)
chain: B7 chain with N122Q
modifications: Cys 71: {2-[2-(2-{2-[2-(2-{2-[(S)-4-Carboxy-4-(17-carboxyheptadecanoylamino)butyrylamino]ethoxy}ethoxy)acetylamino]ethoxy}ethoxy)acetylamino]ethylcarbamoyl}methyl (modifying moiety III) on the sulphur atom
B10: [-1A, 71C, 121Q, 166F, 167G, 168L, 171L, 172E, 173A, 174V, des179-181] FGF-21 (ligand)
chain: AHPIPDSSPLLQFGGQVRQRYLYTDDAQQTEAHLEIREDGTVGGAADQSPESLLQLKALKPGVIQILGVKTCRFLCQRPDGALYGSLHFDPEACSFRELLLEDGYNVYQSEAHGLPLHLPGQKSPHRDPAPRGPARFLPLPGLPPALPEPPGILAPQPPDVGSSDPFGLVGLEAVRSPS
B11: Derivative 101: Analog 10 with modifying moiety III on the sulphur of Cys 71 (ligand)
chain: B10 chain
modifications: Cys 71: {2-[2-(2-{2-[2-(2-{2-[(S)-4-Carboxy-4-(17-carboxyheptadecanoylamino)butyrylamino]ethoxy}ethoxy)acetylamino]ethoxy}ethoxy)acetylamino]ethylcarbamoyl}methyl (modifying moiety III) on the sulphur atom
B12: [-1A, S71C, N121Q, L166F, S167G, M168L, G174V, Y179F, A180E, des181] FGF-21 (ligand)
chain: AHPIPDSSPLLQFGGQVRQRYLYTDDAQQTEAHLEIREDGTVGGAADQSPESLLQLKALKPGVIQILGVKTCRFLCQRPDGALYGSLHFDPEACSFRELLLEDGYNVYQSEAHGLPLHLPGQKSPHRDPAPRGPARFLPLPGLPPALPEPPGILAPQPPDVGSSDPFGLVGPSQVRSPSFE
B13: Derivative 19: Analog 3 with modifying moiety III on the sulphur of Cys 71 (ligand)
chain: B12 chain with Q122N, P172L, S173E, Q174A
modifications: Cys 71: {2-[2-(2-{2-[2-(2-{2-[(S)-4-Carboxy-4-(17-carboxyheptadecanoylamino)butyrylamino]ethoxy}ethoxy)acetylamino]ethoxy}ethoxy)acetylamino]ethylcarbamoyl}methyl (modifying moiety III) on the sulphur atom
B14: [-1A, S71C, L166F, S167G, M168L, G174V, Y179F, A180E, des181] FGF-21 (ligand)
chain: B12 chain with Q122N
B15: Derivative 31: Analog 7 with modifying moiety IV on the sulphur of Cys 71 (ligand)
chain: B12 chain with P172L, S173E, Q174A
modifications: Cys 71: {2-[2-(2-{2-[2-(2-{2-[(S)-4-Carboxy-4-(19-carboxynonadecanoylamino)butyrylamino]ethoxy}ethoxy)acetylamino]ethoxy}ethoxy)acetylamino]ethylcarbamoyl}methyl (modifying moiety IV) on the sulphur atom
B16: Derivative 23: Analog 7 with modifying moiety III on the sulphur of Cys 71 (ligand)
chain: B12 chain with P172L, S173E, Q174A
modifications: Cys 71: {2-[2-(2-{2-[2-(2-{2-[(S)-4-Carboxy-4-(17-carboxyheptadecanoylamino)butyrylamino]ethoxy}ethoxy)acetylamino]ethoxy}ethoxy)acetylamino]ethylcarbamoyl}methyl (modifying moiety III) on the sulphur atom
B17: [-1A, 121Q, 166F, 167G, 168L, 171L, 172E, 173A, 174V, 179F, 180E, des181] FGF-21 (ligand)
chain: B12 chain with C72S, P172L, S173E, Q174A
B18: [-1A, S71C, N121Q, L166F, S167G, M168L, P171L, S172E, Q173A, G174V, Y179F, A180E, des181] FGF-21 (ligand)
chain: B12 chain with P172L, S173E, Q174A
B19: Derivative 21: Analog 5 with modifying moiety III on the sulphur of Cys 71 (ligand)
chain: B12 chain
modifications: Cys 71: {2-[2-(2-{2-[2-(2-{2-[(S)-4-Carboxy-4-(17-carboxyheptadecanoylamino)butyrylamino]ethoxy}ethoxy)acetylamino]ethoxy}ethoxy)acetylamino]ethylcarbamoyl}methyl (modifying moiety III) on the sulphur atom
B20: Derivative 17: Analog 1 with modifying moiety III on the sulphur of Cys 71 (ligand)
chain: B12 chain with Q122N
modifications: Cys 71: {2-[2-(2-{2-[2-(2-{2-[(S)-4-Carboxy-4-(17-carboxyheptadecanoylamino)butyrylamino]ethoxy}ethoxy)acetylamino]ethoxy}ethoxy)acetylamino]ethylcarbamoyl}methyl (modifying moiety III) on the sulphur atom
B21: [-1A, S71C, L166F, S167G, M168L, P171L, S172E, Q173A, G174V, Y179F, A180E, des181] FGF-21 (ligand)
chain: B12 chain with Q122N, P172L, S173E, Q174A

Positions count from the first letter of the chain named. Names and notes keep the numbering of the source.

In this assay the target is human beta-Klotho (human, UniProt Q86Z14 1-1044). Put plainly: cell-based or functional assay.
B1: the “pERK-HEK293-Beta-klotho without HSA [EC50 (nM)] Median Value” (shortened to “pERK-HEK293-Beta-klotho without HSA”) stood at 1.6 nM.

Consider B2, for which the “pERK-HEK293-Beta-klotho without HSA” value amounted to 1.4 nM.

B3: the “pERK-HEK293-Beta-klotho without HSA” value was found to be 0.71 nM.

Consider B4, for which the “pERK-HEK293-Beta-klotho without HSA” value is 0.47 nM.

B5: the “pERK-HEK293-Beta-klotho without HSA” value was determined as 0.64 nM.

Turning to B6, the “pERK-HEK293-Beta-klotho without HSA” value is 0.98 nM.

On to B7, for which the “pERK-HEK293-Beta-klotho without HSA” value is 0.47 nM.

Take B8: the “pERK-HEK293-Beta-klotho without HSA” value stood at 0.76 nM.

As to B9, the “pERK-HEK293-Beta-klotho without HSA” value turned out to be 1.01 nM.

For the molecule B10, the “pERK-HEK293-Beta-klotho without HSA” value turned out to be 12.5 nM.

For B11, the “pERK-HEK293-Beta-klotho without HSA” value stood at 23.8 nM.

Consider B12, for which the “pERK-HEK293-Beta-klotho without HSA” value stood at 0.78 nM.

Take B13: the “pERK-HEK293-Beta-klotho without HSA” value amounted to 0.48 nM.

Take B14: the “pERK-HEK293-Beta-klotho without HSA” value turned out to be 0.71 nM.

As for B15, the “pERK-HEK293-Beta-klotho without HSA” value came to 1.46 nM.

As to B16, the “pERK-HEK293-Beta-klotho without HSA” value came to 0.64 nM.

Turning to B17, the “pERK-HEK293-Beta-klotho without HSA” value was found to be 0.7 nM.

With B18, the “pERK-HEK293-Beta-klotho without HSA” value is 0.63 nM.

As for B19, the “pERK-HEK293-Beta-klotho without HSA” value stood at 1.07 nM.

Consider B20, for which the “pERK-HEK293-Beta-klotho without HSA” value stood at 0.98 nM.

Turning to B21, the “pERK-HEK293-Beta-klotho without HSA” value stood at 0.77 nM.
